Measurements reported in article PMC6297230, “Structural basis of meiotic telomere attachment to the nuclear envelope by MAJIN-TERB2-TERB1” (Nature Communications, 2018).
Residue numbers refer to the chain shown, from its start. Names may count otherwise. “And” between values parts separate entries of the source, which are not always exact repeats. Identical values can stand only once. Each block holds one molecule with its values, some of them ahead of it.

T1: full length TERB2 (1–220) (human, UniProt Q8NHR7 1-220)
T1 construct: human TERB2, canonical isoform Q8NHR7, full length, amino acids 1-220; source: E. coli BL21 (DE3), co-expressed with MAJIN and TERB1, purified (Ni-NTA, amylose, ion exchange, SEC)
T1 sequence (looked up): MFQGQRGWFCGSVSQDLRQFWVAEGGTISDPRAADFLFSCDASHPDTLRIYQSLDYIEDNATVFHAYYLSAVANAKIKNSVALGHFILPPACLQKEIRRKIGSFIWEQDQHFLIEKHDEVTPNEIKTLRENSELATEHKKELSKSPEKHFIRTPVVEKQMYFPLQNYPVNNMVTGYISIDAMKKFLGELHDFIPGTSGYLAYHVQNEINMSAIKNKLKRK

T2: His6–TRF1_(TRFH) (human, UniProt P54274 62-268)
T2 construct: source: E. coli BL21 (DE3), co-purified with MBP–TERB1 fusions
T2 sequence (looked up): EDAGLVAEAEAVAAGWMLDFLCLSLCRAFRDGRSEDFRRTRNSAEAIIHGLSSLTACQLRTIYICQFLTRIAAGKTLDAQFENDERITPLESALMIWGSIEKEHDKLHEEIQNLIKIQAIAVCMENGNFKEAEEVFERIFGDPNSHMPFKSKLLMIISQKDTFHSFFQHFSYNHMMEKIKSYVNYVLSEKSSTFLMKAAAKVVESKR

B1: FAM random dsDNA (145 bp) (dsDNA)
DNA 1: TTCCAGGGTTCCATGGAGATAAAGGTCAATAAATTAGAGTTAGAACTAGAAAGTGCCAAACAGAAATTTGGAGAAATCACAGACACCTATCAGAAAGAAATTGAGGACAAAAAGATATCAGAATAATAACCATGGATATCGAATT
DNA 2: AATTCGATATCCATGGTTATTATTCTGATATCTTTTTGTCCTCAATTTCTTTCTGATAGGTGTCTGTGATTTCTCCAAATTTCTGTTTGGCACTTTCTAGTTCTAACTCTAATTTATTGACCTTTATCTCCATGGAACCCTGGAA
B2: full length TERB2 (1–220) (natural protein)
chain: T1 sequence (looked up)
B3: TERB2 C-terminus, truncated (amino acids 168–207) (domain or fragment)
chain: PVNNMVTGYISIDAMKKFLGELHDFIPGTSGYLAYHVQNE
B4: TERB1 TERB2-binding site (amino acids 585–642) (domain or fragment, human, UniProt Q8NA31 585-642, looked up)
chain: SEMLTYRCSGCIAVEKSLNSRNFSKLLHSCPYQCDRHKVIVEAEDRYKSELRKSLICN
notes: human TERB1, canonical isoform Q8NA31, amino acids 585-642; Forms large aggregates in isolation; also called TERB1T2B; T2B; source: E. coli BL21 (DE3), co-expressed with TERB2, purified (Ni-NTA, amylose, ion exchange, SEC)
B5: TERB2 C-terminus (amino acids 168–220) (domain or fragment)
chain: PVNNMVTGYISIDAMKKFLGELHDFIPGTSGYLAYHVQNEINMSAIKNKLKRK
B6: TERB1 TRF1-binding domain (amino acids 561–658) (domain or fragment, human, UniProt Q8NA31 561-658, looked up)
chain: TDPFTLCSDIINKEVVSFLATPSCSEMLTYRCSGCIAVEKSLNSRNFSKLLHSCPYQCDRHKVIVEAEDRYKSELRKSLICNKKILLTPRRRQRLSNE
notes: human TERB1, canonical isoform Q8NA31, amino acids 561-658; The discussion prints 568–658 once for TRFB; also called TERB1_(TRFB); TRFB; source: E. coli BL21 (DE3), co-expressed with TRF1 TRFH and/or TERB2, purified (Ni-NTA, amylose, ion exchange, SEC)
B7: MBP–TERB1_(TRFB) partially phosphorylated by CDK1-CyclinB (domain or fragment, human, UniProt Q8NA31 561-658, looked up)
chain: B6 chain
modifications: only partially phosphorylated by CDK1-CyclinB (residue not named for this experiment)
notes: human TERB1, canonical isoform Q8NA31, amino acids 561-658; source: E. coli BL21 (DE3), co-purified with His6–TRF1 TRFH, then incubated with phosphorylated CDK1-CyclinB and ATP
B8: TERB1 TRF1-binding domain (amino acids 561–658) T648E (domain or fragment, human, UniProt Q8NA31 561-658, looked up)
chain: B6 chain with T88E
notes: human TERB1, canonical isoform Q8NA31, amino acids 561-658, phosphomimetic T648E; it may be an MBP fusion as in the phosphorylation assays; also called TERB1_(TRFB) T648E; source: E. coli BL21 (DE3), purified
B9: TERB2 N-terminal end (amino acids 1–107) (domain or fragment, human, UniProt Q8NHR7 1-107, looked up)
chain: MFQGQRGWFCGSVSQDLRQFWVAEGGTISDPRAADFLFSCDASHPDTLRIYQSLDYIEDNATVFHAYYLSAVANAKIKNSVALGHFILPPACLQKEIRRKIGSFIWE
notes: Forms large aggregates in isolation; source: E. coli BL21 (DE3), co-expressed with TERB1, purified (Ni-NTA, amylose, ion exchange, SEC)
B10: TRF homology domain of TRF1 (amino acids 62–268) (domain or fragment, human, UniProt P54274 62-268, looked up)
chain: T2 sequence (looked up)
notes: Dimer by SEC-MALS; also called TRF1_(TRFH); source: E. coli BL21 (DE3), purified (Ni-NTA, amylose, ion exchange, SEC; 10% glycerol, room temperature)

How the values were obtained:
[1] = biological target: TRF homology domain of TRF1 (amino acids 62–268) (human) (UniProt P54274); assay: SEC-MALS; relative binding affinities estimated from dissociation of TRF1 TRFH–TERB1 complexes upon serial dilution (Supplementary Fig. 13a–d)
[2] = biological target: MAJIN core, truncated (amino acids 1–106) (human); assay: SEC-MALS; purified (co-expressed) samples at > 1 mg/ml on Superdex 200 Increase 10/300 GL in 20 mM Tris pH 8.0, 250 mM KCl, 2 mM DTT
[3] = biological target: MAJIN N-terminal structural core (amino acids 1–112) (human); assay: as above
TERB1 TBM (Homo sapiens) = TERB1 TBM (Homo sapiens) (UniProt Q8NA31); conditions: cited from earlier work
[4] = biological target: GST-TERB1 TBM (Homo sapiens) (UniProt Q8NA31); conditions: cited from earlier work
TRF1 full length = TRF1 full length (human, UniProt P54274 1-439); assay: EMSA; apparent, Hill fit; EMSA: 20 mM Tris pH 8.0, 250 mM KCl, 1 h at 4 °C, 3% glycerol, 0.5% agarose in 0.5x TBE; 25 nM FAM-DNA for Kd (protein as oligomer), 0.3 uM DNA for display; conditions: protein: recombinant; tags: tag removed (TEV); chain copies: 2; label: 5' 6-FAM; blunt
[5] = biological target: MAJIN N-terminal structural core (amino acids 1–112) (human); assay: SEC-MALS; purified (co-expressed) samples at > 1 mg/ml on Superdex 200 Increase 10/300 GL in 20 mM Tris pH 8.0, 250 mM KCl, 2 mM DTT; remark: listed apart in the source
Target sequence in this assay (Q3KP22 1-112): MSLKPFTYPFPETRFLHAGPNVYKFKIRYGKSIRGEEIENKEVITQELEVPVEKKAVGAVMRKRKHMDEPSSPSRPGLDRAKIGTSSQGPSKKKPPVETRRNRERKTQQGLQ

[6] = biological target: MAJIN core, truncated (amino acids 1–106) (human); assay: as above; remark: listed apart in the source
[7] = biological target: T1, full length TERB2 (1–220); assay: as above; conditions: both partners purified
[8] = biological target: B9; assay: as above; conditions: both partners purified
[9] = biological target: MAJIN core (amino acids 1–112) K24M K26E R28E K31D R34E R81D (human); assay: as above
[10] = biological target: MAJIN core (amino acids 1–112) F73E Y75E (human); assay: as above
[11] = biological target: B10; assay: as above; conditions: both partners purified
His6–TRF1_(TRFH) = biological target: T2, His6–TRF1_(TRFH); assay: SEC-MALS; co-purified His6–TRF1 TRFH complexes with MBP–TERB1 TRFB (9 µM) or MBP–TERB1 TBM (130 µM) incubated with 9 µM phosphorylated CDK1-CyclinB in 40 mM Tris pH 7.5, 250 mM KCl, 20 mM MgCl2, 2 mM ATP, 10 mM DTT, 10 min at 30 °C and 50 min at 22 °C; also SDS–PAGE with ProQ-Diamond; conditions: both partners purified
[12] = biological target: B10; assay: SEC-MALS; relative binding affinities estimated from dissociation of TRF1 TRFH–TERB1 complexes upon serial dilution (Supplementary Fig. 13a–d); conditions: both partners purified
[13] = biological target: B6; assay: SEC-MALS; purified (co-expressed) samples at > 1 mg/ml on Superdex 200 Increase 10/300 GL in 20 mM Tris pH 8.0, 250 mM KCl, 2 mM DTT; conditions: both partners purified
[14] = biological target: MAJIN_(Core+BP1)-TERB2–TERB1_(TRFB) complex (1–147, 1–220, 561–658) (human) (UniProt Q8NHR7); assay: SEC-MALS; complex reconstituted by adding TRF1 TRFH to purified MAJIN–TERB2–TERB1(TRFB) (Supplementary Fig. 12c); conditions: scale: TRF1 TRFH chains per 2:2:2 MAJIN–TERB2–TERB1 complex
[15] = biological target: the molecule itself; assay: SEC-MALS; purified (co-expressed) samples at > 1 mg/ml on Superdex 200 Increase 10/300 GL in 20 mM Tris pH 8.0, 250 mM KCl, 2 mM DTT

Chain of TRF1 full length (P54274 whole entry, the tested form may be a part): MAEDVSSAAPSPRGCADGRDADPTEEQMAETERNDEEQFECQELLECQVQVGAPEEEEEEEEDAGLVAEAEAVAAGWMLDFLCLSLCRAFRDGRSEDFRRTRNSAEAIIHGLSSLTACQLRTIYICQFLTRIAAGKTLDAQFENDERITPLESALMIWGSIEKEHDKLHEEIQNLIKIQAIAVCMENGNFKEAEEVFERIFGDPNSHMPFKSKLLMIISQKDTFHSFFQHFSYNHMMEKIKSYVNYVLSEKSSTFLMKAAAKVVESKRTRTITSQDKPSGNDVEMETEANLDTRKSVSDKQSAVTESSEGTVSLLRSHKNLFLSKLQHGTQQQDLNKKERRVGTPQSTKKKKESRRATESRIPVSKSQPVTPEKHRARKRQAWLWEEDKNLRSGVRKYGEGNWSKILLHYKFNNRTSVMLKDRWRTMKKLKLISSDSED

fold weaker binding than TERB1 TRFB [1]: > 100 fold
Molecule: TERB1TBM (amino acids 642–658) (from UniProt Q8NA31 642-658) (peptide)

stoichiometry N (MAJIN chains in the 2:2 complex) [2]: 2
Molecule: MAJIN core, truncated (amino acids 1–106) (domain or fragment)

stoichiometry N (MAJIN chains in the 2:2:2 complex) [3]: 2
stoichiometry N (MAJIN chains in the 2:2 complex) [3]: 2
Molecule: MAJIN N-terminal structural core (amino acids 1–112) (domain or fragment)

Molecule: TRF1 TRFH (from UniProt P54274)
Kd (TERB1 TBM (Homo sapiens)): 5600 nM
Kd [4]: 75 nM

Molecule: B1
Kd (TRF1 full length): 100 nM

Molecule: B2
stoichiometry N (binder chains per target chain (2:2:2)) [5]: 1

Molecule: B3
stoichiometry N (binder chains per target chain (2:2)) [6]: 1

Molecule: B4
stoichiometry N [7]: 1 binder chains per target chain (2:2:2)
stoichiometry N [8]: 1 binder chains per target chain (1:1)

Molecule: B5
stoichiometry N (binder chains per target chain (1:1)) [9]: 1
stoichiometry N (binder chains per target chain (1:1)) [10]: 1
stoichiometry N (binder chains per target chain (2:2)) [5]: 1

Molecule: B6
stoichiometry N [11]: 0.5 binder chains per target chain (2:1 TRF1:TERB1) and 0.5 binder chains per target chain (2:1:1 TRF1:TERB1:TERB2)

Molecule: B7
stoichiometry N (His6–TRF1_(TRFH)): 0.5 binder chains per target chain (2:1 TRF1:TERB1)

Molecule: B8
fold higher affinity than wild-type TERB1 TBM [12]: ≥ 10 fold

Molecule: B9
stoichiometry N [13]: 1 binder chains per target chain (2:1:1 TRF1:TERB1:TERB2)

Molecule: B10
stoichiometry N [14]: 4
stoichiometry N [15]: 2 chains in the oligomer
